This is an account of results in patent publication US20160053277A1, “Compositions Having Dicamba Decarboxylase Activity and Methods of Use” (PIONEER HI-BRED INTERNATIONAL, INC., priority 2013, published 2016).

The labels stand for the following.
B1: 91 (protein, listed as Botryotinia fuckeliana)
chain: MASFVCNFGKAALATLLLTPSISAADYTPQETVLNSGRPTFYDASTSIPGKIALEEHVGNDLLNGLYTVPYYPNTNEPQYSDSVYIADVGEKMLDIPSRIANMDAANISISVLTFGGPGIQGVFNATYATYAAGYVNDYLYKNYKNNANYTGRFEFWCSNALQEPSKAATELERCVKELGGVGSFVGGYTNNGGINGTANDIVYLDDPSMEPFLEKVVELDVPIYLHPRMPAPSQLLSVKGYEFLGSSPWGFSSETGAHALRLMVSGTLDKYPTLKIVLGHCGEGLPFFLPRIDQRLRHFKKELFNNTLTMEEYWLRNFYVTTAGVQDAGTLVDTIKRTGEDRVMFSVDYPFEDTVEIAGWFDRLEMNTLTKTKLAYENAKALLKLTCYVDAEKRPRIFNKHHVDDIIKHTHSPCIWTLFH
B2: 103 (protein)
chain: MAMEIPTEEIKFLKKEDVQNIDLNGMSKKERYEIWRRIPKVELHCHLDLTFSAEFFLKWARKYNLQPNMSDDEILDHYLFTKEGKSLAEFIRKAISVSDLYRDYDFIEDLAKWAVIEKYKEGVVLMEFRYSPTFVSSSYGLDVELIHKAFIKGIKNATELLNNKIHVALICISDTGHAAASIKHSGDFAIKHKHDFVGFDHGGREIDLKDHKDVYHSVRDHGLHLTVHAGEDATLPNLNTLYTAINILNVERIGHGIRVSESDELIELVKKKDILLEVCPISNLLLNNVKSMDTHPIRKLYDAGVKVSVNSDDPGMFLSNINDNYEKLYIHLNFTLEEFMIMNNWAFEKSFVSDDVKSELKALYF
modifications: Plasmodium yoelii yoelii
B3: 99 (protein, listed as Ralstonia solanacearum)
chain: MAIIDCHGHFTTAPTALEDWRKRQIANLATPALGPSPDDLKISDDALTEAIRANQLRLMQARGSDLTIFSPRASFMAHHIGDFHTSATWAAICNALCHRVSQLFPDHFVGAAMLPQSPGVDIRTCIPELARCIVDYGFVGVNLNPDPSGGHWTSPPLSDPYWFPLYEKLVEYDVPAMIHVSTSCNACFHTTGAHYLNADTTAFMQVLTSDLFRRFPTLKFVIPHGGGAVPYHWGRFRGLAQELKTPPLQEHLLHNVFFDTCVYHQPGIDLLTRVIPVDNILFASEMIGAVRGIDPETGHPFDDTRRYIDQAHTLSAEDRHKIYEGNARRVYPRLDARLKARGR
B4: 101 (protein, listed as Aquifex aeolicus)
chain: MAQKIALCITGASGVIYGIKLLQVLEELDFSVDLVISRNAKVVLKEEHSLTFEEVLKGLKNVRIHEENDFTSPLASGSRLVHYRGVYVVPCSTNTLSCIANGINKNLIHRVGEVALKERVPLVLLVREAPYNEIHLENMLKITRMGGVVVPASPAFYHKPQSIDDMINFVVGKLLDVLRIEHNLYKRWRG
B5: 97 (protein, listed as Sphingobium sp.)
chain: MAMMIIDCHGHYTVLPKAHDEWREQQKAAFKAGQPAPPYPEISDDEIRETIEANQLRLIKERGADMTIFSPRASAMAPHVGDQSVAVPWAQACNNLIARVVDLFPETFAGVCMLPQSPEADMTSSIAELERCVNELGFIGCNLNPDPGGGHFKHPPLTDRFWYPFYEKMVELDVPAMIHVSGSCNPAMHATGAYYLAADTIAFMQLLQGNLFADFPTLRFIIPHGGGAVPYHWGRFRGLADMLKQPSLDTLLMNNVFFDTCVYHQPGINLLADVIDNKNILFGSEMVGAVRGIDPTTGHYFDDTKRYIDALDISDQERHAIFEGNTRRVFPRLDAKLKARGL
B6: 102 (protein, listed as Lactobacillus plantarum)
chain: MATKTFKTLDDFLGTHFIYTYDNGWEYEWYAKNDHTVDYRIHGGMVAGRWVTDQKADIVMLTEGIYKISWTEPTGTDVALDFMPNEKKLHGTIFFPKWVEEHPEITVTYQNEHIDLMEQSREKYATYPKLVVPEFANITYMGDAGQNNEDVISEAPYKEMPNDIRNGKYFDQNYHRLNK
B7: 98 (protein)
chain: MAIIDCHGHYTTAPAAHDAFRKAQIAHHDDPQQPAPQYPHISDDALRESIEQHQLRLLRERGADMTIFSPRASTMAHHIGNEAVSQVWTQRCNDLIARVVQLYPHTFIGVCQLPQSPGVPISHSIAELERCVNELGFVGCNLNPDPSGGHWNGVPLTDRAWYPFFEKMVELDVPAMVHVSGSCNANFHATGAHYLNADTTAFMQFLEGDLFRDFPSLRFIIPHGGGAVPYHWGRFRGLADMLGKPPLATHVMRNVFFDTCVYHQPGIDLLFEVIDIDNILFGSEMVGAVRGIDPQTGHYFDDTKRYIDALTISDADKRKVFEGNARRVYPRLDAQLRARGL
modifications: Xanthomonas campestris pv.
B8: 105 (protein)
chain: MAIDFHVHLDLYPDPVAVARACEERQLTVLSVTTTPAAWRGTLALAAGRPHVWTALGFHPEVVSERAADLPWFDRYLPETRFVGEVGLDGSPSLRGTWTQQFAVFQHILRRCEDHGGRILSIHSRRAESEVLNCLEANPRSGTPILHWYSGSVTELRRAISLGCWFSVGPTMVRTQKGAALIRSMPRDRVLTETDGPFLELDGQAALPWDVKSVVEGLSKIWQIPASEVERIVKENVSRLLGTVR
modifications: Deinococcus radiodurans
B9: 96 (protein)
chain: MAPLIVDVHTHVYPPAYMQMLRSRKTVPYVHDPSNNRDPRLIILSSDDDASIPLDQRGRPVDSSYWDINVKLSFMRQHGINCSVISLANPWLDFVEPAEAQMWAERINDDLEKTCATVNKAADPGNTLTLDQKETLFAFGALPLSAPSSESVVAEIKRLKTLEHLRGVIMGTSGLGKGLDDARLDPVWEALQETDMLMFLHPHYGLPEEAYGGPETTGRYGHVLPLALGFPLETTIAVTRMLLSGVFDRFPRLKILLAHSGGTLPFLAGRIESCILHERKFISGGGDVQGPQRSVWDVLKTNIYLDAVVYGKPGLEAAMTASGSDRLLFGTDHPFFPPLDSKDNSWPSVTTNYQAIHATFDTNSKTVADVLGGNAARILNLK
modifications: Aspergillus nidulans
B10: 6 (protein)
chain: MAEILSPEESIYYSKLSNDILAEGIKKNPTRFRGFAALPTPDPIQAAMELERCIKLGGFVGAIINGHINGHYLDEIQFDPILEAADALDVPLYIHPAVPPKAIIDTYYKMNDTYAQTVMVSGGWGWHIETGVHVLRLISSGVFDRHPNLKIVIGHLGEGLPFFMHRLNNAIGGNLKKSYSTYLKENIYYTISGFNDPDLFQFVLKKVGENNIMFSSDYPFNFPKREVELFNELNISEEVREKISFKNAERILKI
modifications: Treponema brennaborense
B11: 93 (protein, listed as Mucilaginibacter paludis)
chain: MAKYGKHITINKNMRIVTLEEHISFPEMADQIPKAALGSFGRSEAMQRIAPKLADITGERLKSMDANGISMQVLSVDSSGVNLLSPQQGPAFATQYNDLIANRIAGFEKRFTAFAHLPMTAPFAAADELERAVKEHHFCGAMIRGLTGDQFLDHPQFAPIFERAQKLDVPIYLHPGLPPKGVADIYYSGLPNYSGMAEALACYGWGWHSETALHVLRLLFSGIFDQYPKLKLVIGHMGEMLPMMMARSEKAFKPGNGGANVRTLTDTFRSQVYLTTSGFFTQPPLKIALDTFGIDHVMFSVDYPFSTNEMGIEFLNEIDLPDEEVARIAHGNADKLLNLKA
B12: 104 (protein)
chain: MANILQEPIDFLKKEELKNIDLSQMSKKERYKIWKRIPKCELHCHLDLCFSADFFVSCIRKYNLQPNLSDEEVLDYYLFAKGGKSLGEFVEKAIKVADIFHDYEVIEDLAKHAVFNKYKEGVVLMEFRYSPTFVAFKYNLDIELIHQAIVKGIKEVVELLDHKIHVALMCIGDTGHEAANIKASADFCLKHKADFVGFDHGGHEVDLKEYKEIFDYVRESGVPLSVHAGEDVTLPNLNTLYSAIQVLKVERIGHGIRVAESQELIDMVKEKNILLEVCPISNVLLKNAKSMDTHPIRQLYDAGVKVSVNSDDPGMFLTNINDDYEELYTHLNFTLEDFMKMNEWALEKSFMDSNIKDKIKNLYF
modifications: Plasmodium Vivax
B13: 7 (protein, listed as Legionella pneumophila)
chain: MAIVDFETHFITEACIDYLTQRQEVPKLVPELNGAYTMCFTPDVSLFHTSALMEELLSLNEQRLAIMDQAGVTIQVLSLTTINGIDSCPGDENKSTALAREVNDQLYSAIQRHPERFKGFASISPYDVKEGVKELERAISQLGFVGWLTHSNFGEDNYLDDKTYWPLLEAAEGLNIPIYLHPNVPIMREFGKYGFALGGSALGFEFDTALCLMRMILGGVFDAFPKLKIMLGHLGETMPFLMERLDHLYRIPDLKAYRPSIQRIPSEVLRQNVYITTSGRFFVPALRYVLEVMGEDRVLFASDYPMESLLDATRFIQDSDLSNQTKQKIFSINAKNLNLI
B14: 94 (protein, listed as Bacillus thuringiensis)
chain: MANRGDSNMKSLVGVIMGSTSDWETMKYACDILDELNIPYEKKVVSAHRTPDYMFEYAETARERGLKVIIAGAGGAAHLPGMVAAKTNLPVIGVPVQSKALNGLDSLLSIVQMPGGVPVATVAIGKAGSTNAGLLAAQILGSFHDDIHDALELRREAIEKDVREGSELV

A short description of the first data set: Saturation mutagenesis of SEQ ID NO:109: dicamba decarboxylation activity of point mutants (carbon dioxide released). The note with it: decarboxylation activity (carbon dioxide released) of point mutant compared with unmutated backbone protein; backbone SEQ ID NO: 109.
Regarding B1, the “Fold Activity” value came out at 1.6.
Still for that read-out and setting: next, B2: 1.7; B3: 1.7; B4: 1.8.
Still for that read-out and setting: the same measure for B5: 2.9; for B6: 2.6; for B7: 2.3.
For B8, the “Fold Activity” value is 0.9.
The same measure, in the same setting: next, B9: 1.1.
Still for that read-out and setting: next, B10: 0.9; B11: 1.6; B12: 2.1.
With B13, the “Fold Activity” value is given as 1.3.
Same read-out and setting: next, B14: 1.5.

A short description of another data set: 14C assay with IPTG-induced recombinant E. coli cells: 14CO2 captured from [14C]-carboxyl-labeled dicamba. The following applies: dicamba decarboxylation activity of the protein of the given SEQ ID NO; High / Low / No.
Consider B1, for which the “Enzymatic Detection level” value is listed as “Low”.
On the same count and under the same terms, next, B2: “No”; B3: “No”.
Same read-out and setting: the same measure for B4: “No”; for B5: “No”; for B6: “No”.
Still for that read-out and setting: next, B7: “No”; B8: “No”; B9: “No”.
Turning to B10, the “Enzymatic Detection level” value is on record as “No”.
The same measure, in the same setting: the same measure for B11: “Low”; for B12: “No”; for B13: “No”.
Still for that read-out and setting: next, B14: “No”.

Still in this data set, the particulars now being: induced recombinant E. coli cells, [14C]-carboxyl-labeled dicamba, 14CO2 capture.
Regarding B1, the “Dicamba Decarboxylase Activity” value was “Low”.
As for B2, the “Dicamba Decarboxylase Activity” value was “No”.
On the same count and under the same terms, next, B3: “No”.
The same measure, in the same setting: the same measure for B4: “No”.
Take B5: the “Dicamba Decarboxylase Activity” value was “No”.
Regarding B6, the “Dicamba Decarboxylase Activity” value is given as “No”.
Take B7: the “Dicamba Decarboxylase Activity” value was “No”.
Consider B8, for which the “Dicamba Decarboxylase Activity” value is “No”.
Turning to B9, the “Dicamba Decarboxylase Activity” value is recorded as “No”.
Still for that read-out and setting: next, B10: “No”.
The same measure, in the same setting: the same measure for B11: “Low”.
Same read-out and setting: the same measure for B12: “No”.
On to B13, for which the “Dicamba Decarboxylase Activity” value was “No”.
Still for that read-out and setting: the same measure for B14: “No”.
